Data reported in patent US11066482B2, “Specific plasmin inactivation by anticatalytic antibody” (priority 2017, dated 2021).

Assays:
[1] = biological target: protease domain of reduced human plasmin (Homo sapiens, UniProt P00747); assay: Immunoblotting of reduced human plasmin; type: binding
Protocol: FIGS. 1A-1D show binding specificity and avidity of Pi for human plasmin. […] Relative migration of molecular standards (kDa) is shown. […] Wells of a microtiter plate were coated with native (wild-type, WT) or various microplasmin loop mutants (5 ug/ml). After blocking, Pi, a polyclonal rabbit anti-plasmin (plasmin Ab) or a non-reactive mouse (anti-digoxin, control) antibody (1 ug/ml) were added to wells. The bound antibodies (Pi, control) were detected by a secondary anti-mouse peroxidase (1:10,000) and the plasmin antibodies were detected by anti-rabbit peroxidase antibody (1:5,000) followed by TMB substrate with monitoring at A405. […] Wells of microtiter plate were coated with human plasminogen (2 ug/ml). After blocking and washing, various concentrations of purified Pi (shown) were added for 1 h. After washing the amount of antibody bound was detected by a secondary anti-mouse antibody followed by TMB substrate with monitoring at A405 nm. Data shown the means±SE of triplicate observations, experiments repeated at least twice. The data were analyzed with Graphpad Prism, r=0.95.

Plasmin = Plasmin (Homo sapiens, UniProt P00747); assay: Velocity of S2251 substrate cleavage (Michaelis-Menten); type: biochemical; conditions: plasmin 100 nM, Pi 50 nM, S2251 0.1 to 4 mM
Protocol: FIGS. 2A-2D show comparative inhibition of plasmin activity by Pi EACA and a2AP. […] The percent residual activity of plasmin as a function of the log concentration of inhibitor is shown. […] Human plasmin (100 nM, Hematologic Technologies, Inc.) was mixed with or without Pi (50 nM) in the presence of the substrate S2251 (0.1 to 4 mM). The initial rate of substrate cleavage (6 min.) was monitored at A405. Data were plotted and analyzed using Michaelis-Menten kinetics by the Graphpad Prism Program. Means (duplicate observations) are shown and are representative of 4 separate experiments. […] The means of duplicate observations are shown. […] Plasmin (25 nM) was mixed with various concentrations (0-200 nM) of mouse Fab or chimeric Fab (cFab) and S2251 (0.5 mM) in TBS buffer pH 7.4. Plasmin activity was measured by the release of paranitroanilide product at A405 over time.
The effect of Pi on the velocity of substrate cleavage by human plasmin was examined. Human plasmin (100 nM, Hematologic Technologies, Inc.) was mixed with or without Pi (50 nM) in the presence of the substrate S2251 (0.1 to 4 mM). The initial rate of substrate cleavage (6 min.) was monitored at A405. Data were plotted and analyzed using Michaelis-Menten kinetics by the Graphpad Prism Program.

chymotrypsin = assay: Specificity of Pi binding (ELISA); conditions: plate coated 10 ug/ml
Protocol: (§1) FIGS. 3A-3D show binding and inhibitory specificity of Pi. […] The effect of various concentrations of Pi (0-2000 nM) on clots formed with human, baboon or African green monkey plasmas. Clot lysis was measured in microtiter plates after addition of urokinase as described in Methods.
(§2) Specificity of Pi binding. The binding of the Pi to different serine proteases was assessed by ELISA in 96-well plates coated with human plasminogen, mouse plasminogen, tPA, trypsin or chymotrypsin (10 ug/ml) and blocked with 1% BSA. After incubation and washing, Pi or control monoclonal antibody supernatants (anti-digoxin) were added to the wells for 1 h in triplicate. Then goat anti mouse antibody conjugated with HRP (1:5000, Sc-2005, Santa Cruz) was then added. The plate was washed after incubation for 1 h. TMB was added to the wells and absorbance at 370 nm was recorded.

human tPA = human tPA (Homo sapiens, UniProt P00750); assay: Specificity of Pi binding (ELISA); conditions: plate coated 10 ug/ml
Protocol: as §1, §2

mouse plasminogen = mouse plasminogen (Mus musculus, UniProt P20918); assay: Specificity of Pi binding (ELISA); conditions: plate coated 10 ug/ml
Protocol: as §1, §2

trypsin = assay: Specificity of Pi binding (ELISA); conditions: plate coated 10 ug/ml
Protocol: as §1, §2

[2] = tested on: African green monkey clots; assay: Primate clot lysis, microtiter plate, urokinase; type: biochemical; conditions: African green monkey plasma, Pi 0-2000 nM, urokinase 10 U
Protocol: as §1
(§3) The ability of Pi to inhibit primate clot lysis was also examined in a microtiter plate assay. Human, baboon or African green monkey plasma (5 ul) was added to 96-well plates in the presence of various concentrations of Pi (0-2000 nM), CaCl2 (2 mM), thrombin (0.125 U/ml) and human fibrinogen (2 mg/ml) and urokinase (10 U). The wells were incubated at 37° C., clot lysis was recorded kinetically for 120 min. and the time required for complete clot lysis was recorded.

human clots = assay: Primate clot lysis, microtiter plate, urokinase; type: biochemical; conditions: human plasma, Pi 0-2000 nM, urokinase 10 U
Protocol: as §1, §3

[3] = tested on: plasmin-mediated fibrinolysis of human fibrin clots; assay: Fibrinolysis of 125I-fibrin human plasma clots with tPA, EACA vs Pi; type: biochemical; conditions: tPA 5 nM, 2.5 h; Pi 62.5 to 1000 nM, EACA 0.125 mM to 2 mM
human plasma clots = assay: Clot lysis assay of Pi IgG, Fab and chimeric Fab, urokinase; type: biochemical; conditions: 25 nM-400 nM, 30 min
Protocol: FIGS. 4A-4D show comparative inhibition of factor V cleavage and human clot fibrinolysis (dissolution) by Pi, EACA and a2AP. […] The relative migration of molecular weight standards is shown (kDa). […] Human plasma was clotted with CaCl2 (10 mM) and thrombin (1 U/ml) in the presence of trace amounts of 1251 fibrinogen for 1 h at 37 deg. C. After washing in 1 ml of TBS pH 7.4, tPA (5 nM) was added in the presence of various amounts of Pi (62.5 to 1000 nM), EACA (0.125 mM to 2 mM) or no inhibitor. After 2.5 h the amount of fibrinolysis was determined by measuring the amount of 125I-fibrin dissolved in the supernatant. Means of duplicate observations are shown. […] Clots were formed as above in the presence of human plasminogen (2 uM) and a2AP (1 uM) or Pi (1 uM) and various amounts of tPA (0-10 nM). Clot dissolution was monitored in duplicate over 2 h in microtiter plate wells at A405 nm. […] The amount of clot lysis was determined as described in Methods.
The effects of Pi IgG, Fab or chimeric Fab were also compared in a clot lysis assay in microtiter plates. […] C. was monitored at 405 nm. The percent clot dissolution at 30 min. was determined as the percent change in peak turbidity from baseline=100%×(peak absorbance−30 min. absorbance)/(peak absorbance−baseline absorbance).

Sequence of Plasmin (P00747 97-580 limits assumed): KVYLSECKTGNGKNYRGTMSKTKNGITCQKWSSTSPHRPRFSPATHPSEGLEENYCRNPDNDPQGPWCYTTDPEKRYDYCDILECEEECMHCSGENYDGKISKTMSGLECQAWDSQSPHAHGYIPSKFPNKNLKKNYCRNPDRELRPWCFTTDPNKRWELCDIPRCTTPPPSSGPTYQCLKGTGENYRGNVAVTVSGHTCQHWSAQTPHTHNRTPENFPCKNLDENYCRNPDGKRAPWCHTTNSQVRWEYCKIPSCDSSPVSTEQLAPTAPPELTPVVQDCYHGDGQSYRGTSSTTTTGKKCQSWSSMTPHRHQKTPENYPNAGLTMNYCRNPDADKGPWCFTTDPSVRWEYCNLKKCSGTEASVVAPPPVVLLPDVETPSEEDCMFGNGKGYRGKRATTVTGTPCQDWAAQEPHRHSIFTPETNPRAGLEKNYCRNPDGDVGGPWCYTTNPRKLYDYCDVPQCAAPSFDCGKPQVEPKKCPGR
Sequence of Plasmin (P00747 581-810 limits assumed): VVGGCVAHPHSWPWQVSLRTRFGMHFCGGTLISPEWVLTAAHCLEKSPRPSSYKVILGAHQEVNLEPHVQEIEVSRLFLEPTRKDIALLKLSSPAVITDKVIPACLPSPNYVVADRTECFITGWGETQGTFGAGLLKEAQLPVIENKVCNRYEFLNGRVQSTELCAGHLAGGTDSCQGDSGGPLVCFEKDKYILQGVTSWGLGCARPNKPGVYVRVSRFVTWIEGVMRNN
Sequence of mouse plasminogen (P20918 20-812 limits assumed): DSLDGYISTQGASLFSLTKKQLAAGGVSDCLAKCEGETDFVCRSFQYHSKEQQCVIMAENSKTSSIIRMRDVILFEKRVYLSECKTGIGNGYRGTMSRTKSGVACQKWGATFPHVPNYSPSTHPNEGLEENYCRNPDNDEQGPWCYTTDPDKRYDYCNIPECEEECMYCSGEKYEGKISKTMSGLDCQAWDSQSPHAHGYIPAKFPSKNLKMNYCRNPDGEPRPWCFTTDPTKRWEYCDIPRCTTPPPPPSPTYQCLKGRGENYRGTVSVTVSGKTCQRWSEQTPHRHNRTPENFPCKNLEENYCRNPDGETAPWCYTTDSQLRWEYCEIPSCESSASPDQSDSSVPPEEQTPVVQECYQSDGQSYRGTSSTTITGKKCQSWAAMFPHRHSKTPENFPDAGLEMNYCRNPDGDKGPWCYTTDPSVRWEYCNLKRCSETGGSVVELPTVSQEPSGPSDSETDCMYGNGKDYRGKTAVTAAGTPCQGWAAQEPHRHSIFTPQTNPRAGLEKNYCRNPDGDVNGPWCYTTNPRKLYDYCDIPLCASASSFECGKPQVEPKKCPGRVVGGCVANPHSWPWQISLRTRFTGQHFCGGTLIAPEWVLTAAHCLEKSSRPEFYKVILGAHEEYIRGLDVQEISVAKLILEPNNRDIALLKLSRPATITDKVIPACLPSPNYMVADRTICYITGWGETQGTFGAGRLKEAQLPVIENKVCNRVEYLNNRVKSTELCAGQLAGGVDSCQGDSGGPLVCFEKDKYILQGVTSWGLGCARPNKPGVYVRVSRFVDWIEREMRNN
Sequence of human tPA (P00750 36-562): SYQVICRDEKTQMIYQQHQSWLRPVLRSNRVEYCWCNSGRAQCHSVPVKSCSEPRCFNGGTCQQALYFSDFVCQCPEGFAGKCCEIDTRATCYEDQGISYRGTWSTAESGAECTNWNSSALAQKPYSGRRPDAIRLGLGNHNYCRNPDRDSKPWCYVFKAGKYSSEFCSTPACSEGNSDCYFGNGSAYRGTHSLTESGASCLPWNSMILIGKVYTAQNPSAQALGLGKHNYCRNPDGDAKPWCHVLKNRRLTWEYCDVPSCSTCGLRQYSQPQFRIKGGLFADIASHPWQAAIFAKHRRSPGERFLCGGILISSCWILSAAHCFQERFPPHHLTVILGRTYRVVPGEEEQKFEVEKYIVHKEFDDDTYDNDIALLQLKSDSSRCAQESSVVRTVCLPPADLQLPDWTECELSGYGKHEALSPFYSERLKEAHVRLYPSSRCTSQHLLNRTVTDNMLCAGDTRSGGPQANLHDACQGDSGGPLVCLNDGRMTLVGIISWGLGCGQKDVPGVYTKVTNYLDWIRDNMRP
Sequence of protease domain of reduced human plasmin (P00747 581-810 limits assumed): as the sequence (P00747 581-810 limits assumed) above

B1: Pi: mouse monoclonal antibody plasmin inhibitor binding plasmin protease domain loops 4 and 5; LC SEQ ID NO:1, HC SEQ ID NO:4 (antibody)
heavy: EVKLLESGGGLVQPGGSLKLSCAASGFDFSRYWMSWVRQAPGKGLEWIGEINPDSSTINYTPSLKDKFIISRDNAKNSLYLQMSKVRSEDTALYYCASYCGYSYDALDCWGQGTSVTVSSAKTTPPSVYPLAPGSAAQTNSMVTLGCLVKGYFPEPVTVTWNSGSLSSGVHTFPAVLQSDLYTLSSSVTVPSSTWPSETVTCNVAHPASSTKVDKKIVPRDCGCKPCICTVPEVSSVFIFPPKPKDVLTITLTPKVTCVVVDISKDDPEVQFSWFVDDVEVHTAQTQPREEQFNSTFRSVSELPIMHQDWLNGKEFKCRVNSVAFPAPIEKTISKTKGRPKAPQVYTIPPPKEQMAKDKVSLTCMITDFFPEDITVEWQWNGQPAENYKNTQPIMDTDGSYFVYGKLNVQKSNWEAGNTFTCSVLHEGLHNHHTEKSLSHSPGK
light: DIQMTQSPSSLSASLGGKVSITCKASQDINKYISWYQHKPGKGPRLLIHYTSTLQPGIPSRFSGSGSGRDYSFSISNLEPEDIATYYCLQYDNLYTFGGGTKLEIKRADAAPTVSIFPPSSEQLTSGGASVVCFLNNFYPKDINVKWKIDGSERQNGVLNSWTDQDSKDSTYSMSSTLTLTKDEYERHNSYTCEATHKTSTSPIVKSFNWNEC
binding by immunoblotting [1]: bound specifically to the protease domain of plasmin
effect on Vmax of plasmin cleavage of S2251 (Plasmin): reduced the Vmax of plasmin cleavage of S2251
specific binding vs control anti-digoxin antibody (chymotrypsin): no specific binding
specific binding vs control anti-digoxin antibody (human tPA): no specific binding
specific binding vs control anti-digoxin antibody (mouse plasminogen): no specific binding
specific binding vs control anti-digoxin antibody (trypsin): no specific binding
effect on clot lysis [2]: dose-related suppression
effect on clot lysis (human clots): markedly prolonged plasmin-induced fibrinolysis
effect on fibrinolysis of human fibrin clots [3]: significantly suppressed
inhibition of clot lysis by Pi molecular forms (human plasma clots): effectively inhibited clot lysis
